In the assay the target is T1, His6-tagged hIL-21Rα extracellular domain (human, UniProt Q9HBE5 20-232).
T1 construct: extracellular domain; also called His6-tagged receptor EC domain; hIL-21Rα chain; not shown: His6 tag
The assay is described as follows: ALPHAScreen competition against biotinylated hIL-21 HA. (Bead proximity is the source of the signal in Alpha formats.)

T1 sequence (Q9HBE5 20-232): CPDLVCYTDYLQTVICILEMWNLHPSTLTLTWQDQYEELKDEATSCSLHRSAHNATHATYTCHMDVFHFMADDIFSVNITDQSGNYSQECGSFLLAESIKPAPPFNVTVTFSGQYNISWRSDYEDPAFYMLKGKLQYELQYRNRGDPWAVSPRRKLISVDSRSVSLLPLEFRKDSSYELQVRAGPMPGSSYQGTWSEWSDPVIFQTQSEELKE

B1: hIL-21 HA triple mutant [Q116D, H120D, L123D] (ligand)
chain: QGQDRHMIRMRQLIDIVDQLKNYVNDLVPEFLPAPEDVETNCEWSAFSCFQKAQLKSANTGNNERIINVSIKKLKRKPPSTNAGRRQKHRLTCPSCDSYEKKPPKEFLERFKSLLDKMIDQHDSSRTHGSEDSYPYDVPDYA
notes: Made by site-directed mutagenesis of the pcDNA3.1(+)/hIL-21HA plasmid and expressed in HEK293 cells
Turning to B1, the binding result is given as “binds”.

The record behind these values is US20120107267A1 (Novo Nordisk, published 2012).
